Molecular target: the molecule itself
Assay: crystal structure

B1: PsoE (enzyme, A. fumigatus)
chain: MVFGTLYTFPGDQCRTIAIKAVAKANGLDLDIRETPRTPDHLSISKLGKVPAFQGADSFKLFECMAIALYITSQNEQTTLLGKDKKEYAEIIKWMSFFNTEIVILMTQQLLPQLGVIPYDRDQVEFFANMTQRSVDVVEEYLQDRTFLVGDQLSLADLFCAGNISLGFQFFYGKAWRQQNPNVSRWYEMVCHQPIYAAVTDKFQLLDEPKLTNNPPEKKPETVPKNGAAVAIEATQA
- stoichiometry N: 2
